Values of other authors as cited in paper PMC3321547 (Biochemistry, 2009).

Tested on: DKH960
Conditions: folded DKH960, ref [6]

B1: DKH960: folded kinesin heavy chain construct (protein, UniProt P17210 1-960, looked up, fragment)
chain: MSAEREIPAEDSIKVVCRFRPLNDSEEKAGSKFVVKFPNNVEENCISIAGKVYLFDKVFKPNASQEKVYNEAAKSIVTDVLAGYNGTIFAYGQTSSGKTHTMEGVIGDSVKQGIIPRIVNDIFNHIYAMEVNLEFHIKVSYYEIYMDKIRDLLDVSKVNLSVHEDKNRVPYVKGATERFVSSPEDVFEVIEEGKSNRHIAVTNMNEHSSRSHSVFLINVKQENLENQKKLSGKLYLVDLAGSEKVSKTGAEGTVLDEAKNINKSLSALGNVISALADGNKTHIPYRDSKLTRILQESLGGNARTTIVICCSPASFNESETKSTLDFGRRAKTVKNVVCVNEELTAEEWKRRYEKEKEKNARLKGKVEKLEIELARWRAGETVKAEEQINMEDLMEASTPNLEVEAAQTAAAEAALAAQRTALANMSASVAVNEQARLATECERLYQQLDDKDEEINQQSQYAEQLKEQVMEQEELIANARREYETLQSEMARIQQENESAKEEVKEVLQALEELAVNYDQKSQEIDNKNKDIDALNEELQQKQSVFNAASTELQQLKDMSSHQKKRITEMLTNLLRDLGEVGQAIAPGESSIDLKMSALAGTDASKVEEDFTMARLFISKMKTEAKNIAQRCSNMETQQADSNKKISEYEKDLGEYRLLISQHEARMKSLQESMREAENKKRTLEEQIDSLREECAKLKAAEHVSAVNAEEKQRAEELRSMFDSQMDELREAHTRQVSELRDEIAAKQHEMDEMKDVHQKLLLAHQQMTADYEKVRQEDAEKSSELQNIILTNERREQARKDLKGLEDTVAKELQTLHNLRKLFVQDLQQRIRKNVVNEESEEDGGSLAQKQKISFLENNLDQLTKVHKQLVRDNADLRCELPKLEKRLRCTMERVKALETALKEAKEGAMRDRKRYQYEVDRIKEAVRQKHLGRRGPQAQIAKPIRSGQGAIAIRGGGA
  maximum extent of inhibition of ADP release: over 50%
